Reference: paper PMC3527552

Experiments:
Conditions in all cases: glycan lost; control: wild type
[1] = confocal immunofluorescence, colocalisation with calnexin
[2] = total cell lysate anti-HA Western blot
[3] = cell surface biotinylation, anti-HA Western blot
[4] = 0.1 μM E-3-S uptake, 2 min, HEK293

Row | Protein | localisation_or_trafficking [1] | expression_or_secretion [2] | expression_or_secretion, percent_of_wt [3] | other: transport activity [4]
1 | OATP1B1: N134/503/516Q (protein) parent chain: MDQNQHLNKTAEAQPSENKKTRYCNGLKMFLAALSLSFIAKTLGAIIMKSSIIHIERRFEISSSLVGFIDGSFEIGNLLVIVFVSYFGSKLHRPKLIGIGCFIMGIGGVLTALPHFFMGYYRYSKETNINSSENSTSTLSTCLINQILSLNRASPEIVGKGCLKESGSYMWIYVFMGNMLRGIGETPIVPLGLSYIDDFAKEGHSSLYLGILNAIAMIGPIIGFTLGSLFSKMYVDIGYVDLSTIRITPTDSRWVGAWWLNFLVSGLFSIISSIPFFFLPQTPNKPQKERKASLSLHVLETNDEKDQTANLTNQGKNITKNVTGFFQSFKSILTNPLYVMFVLLTLLQVSSYIGAFTYVFKYVEQQYGQPSSKANILLGVITIPIFASGMFLGGYIIKKFKLNTVGIAKFSCFTAVMSLSFYLLYFFILCENKSVAGLTMTYDGNNPVTSHRDVPLSYCNSDCNCDESQWEPVCGNNGITYISPCLAGCKSSSGNKKPIVFYNCSCLEVTGLQNRNYSAHLGECPRDDACTRKFYFFVAIQVLNLFFSALGGTSHVMLIVKIVQPELKSLALGFHSMVIRALGGILAPIYFGALIDTTCIKWSTNNCGTRGSCRTYNSTSFSRVYLGLSSMLRVSSLVLYIILIYAMKKKYQEKDINASENGSVMDEANLESLNKNKHFVPSAGADSETHC | changes | decreases | decreases | 
2 | OATP1B1: N134Q (protein) parent chain: MDQNQHLNKTAEAQPSENKKTRYCNGLKMFLAALSLSFIAKTLGAIIMKSSIIHIERRFEISSSLVGFIDGSFEIGNLLVIVFVSYFGSKLHRPKLIGIGCFIMGIGGVLTALPHFFMGYYRYSKETNINSSENSTSTLSTCLINQILSLNRASPEIVGKGCLKESGSYMWIYVFMGNMLRGIGETPIVPLGLSYIDDFAKEGHSSLYLGILNAIAMIGPIIGFTLGSLFSKMYVDIGYVDLSTIRITPTDSRWVGAWWLNFLVSGLFSIISSIPFFFLPQTPNKPQKERKASLSLHVLETNDEKDQTANLTNQGKNITKNVTGFFQSFKSILTNPLYVMFVLLTLLQVSSYIGAFTYVFKYVEQQYGQPSSKANILLGVITIPIFASGMFLGGYIIKKFKLNTVGIAKFSCFTAVMSLSFYLLYFFILCENKSVAGLTMTYDGNNPVTSHRDVPLSYCNSDCNCDESQWEPVCGNNGITYISPCLAGCKSSSGNKKPIVFYNCSCLEVTGLQNRNYSAHLGECPRDDACTRKFYFFVAIQVLNLFFSALGGTSHVMLIVKIVQPELKSLALGFHSMVIRALGGILAPIYFGALIDTTCIKWSTNNCGTRGSCRTYNSTSFSRVYLGLSSMLRVSSLVLYIILIYAMKKKYQEKDINASENGSVMDEANLESLNKNKHFVPSAGADSETHC |  |  | no change | no change
3 | OATP1B1: N503Q (protein) parent chain: MDQNQHLNKTAEAQPSENKKTRYCNGLKMFLAALSLSFIAKTLGAIIMKSSIIHIERRFEISSSLVGFIDGSFEIGNLLVIVFVSYFGSKLHRPKLIGIGCFIMGIGGVLTALPHFFMGYYRYSKETNINSSENSTSTLSTCLINQILSLNRASPEIVGKGCLKESGSYMWIYVFMGNMLRGIGETPIVPLGLSYIDDFAKEGHSSLYLGILNAIAMIGPIIGFTLGSLFSKMYVDIGYVDLSTIRITPTDSRWVGAWWLNFLVSGLFSIISSIPFFFLPQTPNKPQKERKASLSLHVLETNDEKDQTANLTNQGKNITKNVTGFFQSFKSILTNPLYVMFVLLTLLQVSSYIGAFTYVFKYVEQQYGQPSSKANILLGVITIPIFASGMFLGGYIIKKFKLNTVGIAKFSCFTAVMSLSFYLLYFFILCENKSVAGLTMTYDGNNPVTSHRDVPLSYCNSDCNCDESQWEPVCGNNGITYISPCLAGCKSSSGNKKPIVFYNCSCLEVTGLQNRNYSAHLGECPRDDACTRKFYFFVAIQVLNLFFSALGGTSHVMLIVKIVQPELKSLALGFHSMVIRALGGILAPIYFGALIDTTCIKWSTNNCGTRGSCRTYNSTSFSRVYLGLSSMLRVSSLVLYIILIYAMKKKYQEKDINASENGSVMDEANLESLNKNKHFVPSAGADSETHC |  |  | no change | no change
4 | OATP1B1: N516Q (protein) parent chain: MDQNQHLNKTAEAQPSENKKTRYCNGLKMFLAALSLSFIAKTLGAIIMKSSIIHIERRFEISSSLVGFIDGSFEIGNLLVIVFVSYFGSKLHRPKLIGIGCFIMGIGGVLTALPHFFMGYYRYSKETNINSSENSTSTLSTCLINQILSLNRASPEIVGKGCLKESGSYMWIYVFMGNMLRGIGETPIVPLGLSYIDDFAKEGHSSLYLGILNAIAMIGPIIGFTLGSLFSKMYVDIGYVDLSTIRITPTDSRWVGAWWLNFLVSGLFSIISSIPFFFLPQTPNKPQKERKASLSLHVLETNDEKDQTANLTNQGKNITKNVTGFFQSFKSILTNPLYVMFVLLTLLQVSSYIGAFTYVFKYVEQQYGQPSSKANILLGVITIPIFASGMFLGGYIIKKFKLNTVGIAKFSCFTAVMSLSFYLLYFFILCENKSVAGLTMTYDGNNPVTSHRDVPLSYCNSDCNCDESQWEPVCGNNGITYISPCLAGCKSSSGNKKPIVFYNCSCLEVTGLQNRNYSAHLGECPRDDACTRKFYFFVAIQVLNLFFSALGGTSHVMLIVKIVQPELKSLALGFHSMVIRALGGILAPIYFGALIDTTCIKWSTNNCGTRGSCRTYNSTSFSRVYLGLSSMLRVSSLVLYIILIYAMKKKYQEKDINASENGSVMDEANLESLNKNKHFVPSAGADSETHC |  |  | no change | no change
5 | OATP1B1: N134/432Q (protein) parent chain: MDQNQHLNKTAEAQPSENKKTRYCNGLKMFLAALSLSFIAKTLGAIIMKSSIIHIERRFEISSSLVGFIDGSFEIGNLLVIVFVSYFGSKLHRPKLIGIGCFIMGIGGVLTALPHFFMGYYRYSKETNINSSENSTSTLSTCLINQILSLNRASPEIVGKGCLKESGSYMWIYVFMGNMLRGIGETPIVPLGLSYIDDFAKEGHSSLYLGILNAIAMIGPIIGFTLGSLFSKMYVDIGYVDLSTIRITPTDSRWVGAWWLNFLVSGLFSIISSIPFFFLPQTPNKPQKERKASLSLHVLETNDEKDQTANLTNQGKNITKNVTGFFQSFKSILTNPLYVMFVLLTLLQVSSYIGAFTYVFKYVEQQYGQPSSKANILLGVITIPIFASGMFLGGYIIKKFKLNTVGIAKFSCFTAVMSLSFYLLYFFILCENKSVAGLTMTYDGNNPVTSHRDVPLSYCNSDCNCDESQWEPVCGNNGITYISPCLAGCKSSSGNKKPIVFYNCSCLEVTGLQNRNYSAHLGECPRDDACTRKFYFFVAIQVLNLFFSALGGTSHVMLIVKIVQPELKSLALGFHSMVIRALGGILAPIYFGALIDTTCIKWSTNNCGTRGSCRTYNSTSFSRVYLGLSSMLRVSSLVLYIILIYAMKKKYQEKDINASENGSVMDEANLESLNKNKHFVPSAGADSETHC |  |  | no change | no change
6 | OATP1B1: N134/503Q (protein) parent chain: MDQNQHLNKTAEAQPSENKKTRYCNGLKMFLAALSLSFIAKTLGAIIMKSSIIHIERRFEISSSLVGFIDGSFEIGNLLVIVFVSYFGSKLHRPKLIGIGCFIMGIGGVLTALPHFFMGYYRYSKETNINSSENSTSTLSTCLINQILSLNRASPEIVGKGCLKESGSYMWIYVFMGNMLRGIGETPIVPLGLSYIDDFAKEGHSSLYLGILNAIAMIGPIIGFTLGSLFSKMYVDIGYVDLSTIRITPTDSRWVGAWWLNFLVSGLFSIISSIPFFFLPQTPNKPQKERKASLSLHVLETNDEKDQTANLTNQGKNITKNVTGFFQSFKSILTNPLYVMFVLLTLLQVSSYIGAFTYVFKYVEQQYGQPSSKANILLGVITIPIFASGMFLGGYIIKKFKLNTVGIAKFSCFTAVMSLSFYLLYFFILCENKSVAGLTMTYDGNNPVTSHRDVPLSYCNSDCNCDESQWEPVCGNNGITYISPCLAGCKSSSGNKKPIVFYNCSCLEVTGLQNRNYSAHLGECPRDDACTRKFYFFVAIQVLNLFFSALGGTSHVMLIVKIVQPELKSLALGFHSMVIRALGGILAPIYFGALIDTTCIKWSTNNCGTRGSCRTYNSTSFSRVYLGLSSMLRVSSLVLYIILIYAMKKKYQEKDINASENGSVMDEANLESLNKNKHFVPSAGADSETHC |  |  | no change | no change
7 | OATP1B1: N134/516Q (protein) parent chain: MDQNQHLNKTAEAQPSENKKTRYCNGLKMFLAALSLSFIAKTLGAIIMKSSIIHIERRFEISSSLVGFIDGSFEIGNLLVIVFVSYFGSKLHRPKLIGIGCFIMGIGGVLTALPHFFMGYYRYSKETNINSSENSTSTLSTCLINQILSLNRASPEIVGKGCLKESGSYMWIYVFMGNMLRGIGETPIVPLGLSYIDDFAKEGHSSLYLGILNAIAMIGPIIGFTLGSLFSKMYVDIGYVDLSTIRITPTDSRWVGAWWLNFLVSGLFSIISSIPFFFLPQTPNKPQKERKASLSLHVLETNDEKDQTANLTNQGKNITKNVTGFFQSFKSILTNPLYVMFVLLTLLQVSSYIGAFTYVFKYVEQQYGQPSSKANILLGVITIPIFASGMFLGGYIIKKFKLNTVGIAKFSCFTAVMSLSFYLLYFFILCENKSVAGLTMTYDGNNPVTSHRDVPLSYCNSDCNCDESQWEPVCGNNGITYISPCLAGCKSSSGNKKPIVFYNCSCLEVTGLQNRNYSAHLGECPRDDACTRKFYFFVAIQVLNLFFSALGGTSHVMLIVKIVQPELKSLALGFHSMVIRALGGILAPIYFGALIDTTCIKWSTNNCGTRGSCRTYNSTSFSRVYLGLSSMLRVSSLVLYIILIYAMKKKYQEKDINASENGSVMDEANLESLNKNKHFVPSAGADSETHC |  |  | no change | no change
8 | OATP1B1: N134/617Q (protein) parent chain: MDQNQHLNKTAEAQPSENKKTRYCNGLKMFLAALSLSFIAKTLGAIIMKSSIIHIERRFEISSSLVGFIDGSFEIGNLLVIVFVSYFGSKLHRPKLIGIGCFIMGIGGVLTALPHFFMGYYRYSKETNINSSENSTSTLSTCLINQILSLNRASPEIVGKGCLKESGSYMWIYVFMGNMLRGIGETPIVPLGLSYIDDFAKEGHSSLYLGILNAIAMIGPIIGFTLGSLFSKMYVDIGYVDLSTIRITPTDSRWVGAWWLNFLVSGLFSIISSIPFFFLPQTPNKPQKERKASLSLHVLETNDEKDQTANLTNQGKNITKNVTGFFQSFKSILTNPLYVMFVLLTLLQVSSYIGAFTYVFKYVEQQYGQPSSKANILLGVITIPIFASGMFLGGYIIKKFKLNTVGIAKFSCFTAVMSLSFYLLYFFILCENKSVAGLTMTYDGNNPVTSHRDVPLSYCNSDCNCDESQWEPVCGNNGITYISPCLAGCKSSSGNKKPIVFYNCSCLEVTGLQNRNYSAHLGECPRDDACTRKFYFFVAIQVLNLFFSALGGTSHVMLIVKIVQPELKSLALGFHSMVIRALGGILAPIYFGALIDTTCIKWSTNNCGTRGSCRTYNSTSFSRVYLGLSSMLRVSSLVLYIILIYAMKKKYQEKDINASENGSVMDEANLESLNKNKHFVPSAGADSETHC |  |  | no change | no change
